Reference: PMC3285605

Experiments:
[1] = biological target: soluble form of vesicular stomatitis virus (VSV) glycoprotein G ectodomain (Gth, aa residues 1–422) (vesicular stomatitis virus (Mudd-Summer strain, Indiana serotype)); test: AUC; sedimentation velocity, pH 6.7, Gth at 1.6 mg/ml, 45,000 rpm, 15°C
[2] = biological target: soluble form of vesicular stomatitis virus (VSV) glycoprotein G ectodomain (Gth, aa residues 1–422) (vesicular stomatitis virus (Mudd-Summer strain, Indiana serotype)); test: AUC; sedimentation velocity, pH 6.7, Gth at 0.4 mg/ml, 45,000 rpm, 15°C
[3] = biological target: soluble form of vesicular stomatitis virus (VSV) glycoprotein G ectodomain (Gth, aa residues 1–422) (vesicular stomatitis virus (Mudd-Summer strain, Indiana serotype)); test: AUC

Q: Which results are given for “soluble form of vesicular stomatitis virus (VSV) glycoprotein G ectodomain (Gth, aa residues 1–422) (domain or fragment)”?
A: fractional concentration of the 10.0 S species at 1.6 mg/ml, pH 6.7 [1]: 40%; fractional concentration of the 21.0 S species at 1.6 mg/ml, pH 6.7 [1]: 24%; fractional concentration of the 21.0 S species at 0.4 mg/ml, pH 6.7 [2]: 13%; fraction of the species of about 320 kDa at pH 6.0 [3]: 30%; fraction of the species of about 1,600 kDa at pH 6.0 [3]: 70%; fractional concentration of the 10.0 S species at 0.4 mg/ml, pH 5.7 [3]: 71%; fractional concentration of the 10.0 S species at 1.6 mg/ml, pH 5.7 [3]: 55%; fractional concentration of the 21.0 S species at 0.4 mg/ml, pH 5.7 [3]: 29%; fractional concentration of the 21.0 S species at 1.6 mg/ml, pH 5.7 [3]: 45%
